Experimental data as given in US12545899B2, “Luciferase enzymes for use with thermostable luciferins in bioluminescent assays” (Promega Corporation, priority 2018, dated 2026).
Numbering of substitutions follows the chain as printed. In names and notes the source's numbering stands.

B1: MK0149: SEQ ID NO: 115; H244W+S193A+N228D+L305F+S306P+I109V+C38R+F55I+Y108F+A316W+Y339M+T342S+V348I+C257R+T284A+T289S+L437R (protein)
chain: MADKNILYGPEPFYPLEDGTAGEQMFDALSRYAAIPGRIALTNAHTKENVLYEEILKLSCRLAESFKKYGLKQNDTIAVCSENSLQFFLPVIASLYLGIIVAPVNDKFVERELIHSLGIVKPRIVFCSKNTFQKVLNVKSKLKSIETIIILDLNEDLGGYQCLNNFISQNSDSNLDVKKFKPYSFNRDDQVAAIMFSSGTTGLPKGVMLTHKNIVARFSIAKDPTFGDAINPTSAILTVIPFHWGFGMMTTLGYFTRGFRVVLMHTFEEKLFLQSLQDYKVESALLVPSLMAFLAKSALVEKYDFPHLKEIASGGWPLSKEIGEMVKKRFKLNFVRQGMGLSETTSAILITPKGDAKPGSTGKIVPLHAVKVVDPTTGKILGPNEPGELYFKGPMIMKGYYNNEEATKAIIDNDGWLRSGDIAYYDNDGHFYIVDRRKSLIKYKGYQVAPAEIEGILLQHPYIVDAGVTGIPDEAAGELPAAGVVVQTGKYLNEQIVQDYVASQVSTAKWLRGGVKFLDEIPKGSTGKIDRKVLRQMLEKHTNGHHHHHHHH
B2: MK0154: SEQ ID NO: 119; H244W+S193A+N228D+L305F+S306P+I109V+C38R+F55I+Y108F+A316W+Y339M+T342S+V348I+C257R+T284A+T289S+S313T+K353R+D435G+L437R+W510R (protein)
chain: B1 chain with R257C, S313T, R437L, W510R
B3: MK0151: SEQ ID NO: 116; H244W+S193A+N228D+L305F+S306P+I109V+C38R+F55I+Y108F+A316W+Y339M+T342S+V348I+S313T+D435G+L437R (protein)
chain: B1 chain with A284T, S289T, K353R, W510R
B4: MK0155: SEQ ID NO: 120; H244W+S193A+N228D+L305F+S306P+I109V+C38R+F55I+Y108F+A316W+Y339M+T342S+V348I+T284A+S313T+K353R+L437R+W510R (protein)
chain: B1 chain with R257C, S289T, S313T, K353R, W510R
B5: MK0152: SEQ ID NO: 117; H244W+S193A+N228D+L305F+S306P+I109V+C38R+F55I+Y108F+A316W+Y339M+T342S+V348I+C257R+K353R+L437R+W510R (protein)
chain: B1 chain with R257C, A284T, K353R, D435G, R437L, W510R
B6: MK0153: SEQ ID NO: 118; H244W+S193A+N228D+L305F+S306P+I109V+C38R+F55I+Y108F+A316W+Y339M+T342S+V348I+T289S+K353R+D435G+W510R (protein)
chain: B1 chain with A284T, S313T, K353R, R437L

Columns and labels:
Format in all cases: biochemical
[1] = Kinetic analysis of thermostable variants with CS0280 (Tables 13, 14); details: 2 mM ATP
Description: (§1) Tables 13 and 14 include representative results of kinetic analysis of the thermostable variants with D/L luciferin, CS0333, and CS0280. The panel of enzyme variants highlight amino acid substitutions that further improve upon MK0137 in maximum luminescence (Vmax) or Km in different buffers with the different substrates tested (D/L-luciferin, CS0333, and CS0280). In particular, enzyme variants MK0151 and MK153 show improvements relative to MK0137 across multiple buffers with multiple substrates.

[2] = Kinetic analysis of thermostable variants with D/L-luciferin (Tables 13, 14); details: 2 mM ATP
Description: as §1

[3] = Luminescence at 1 mM CS0333 (Table 11); details: 1 mM substrate, 1 mM ATP
Description: (§2) Tables 10 and 11 include representative results of kinetic analysis of the thermostable variants with D/L luciferin, CS0333, and CS0280. […] MK0135 and MK0137 have amino acid substitutions that improve thermostability relative to MK0133 and MK0134, respectively, while retaining activity on the luciferin analogs CS0333 and CS0280.

[4] = Luminescence at 1 mM CS0280 (Table 11); details: 1 mM substrate, 1 mM ATP
Description: as §2

[5] = Luminescence at 1 mM D/L-luciferin (Table 11); details: 1 mM substrate, 1 mM ATP
Description: as §2

[6] = Kinetic analysis of thermostable variants with CS0333 (Tables 13, 14); details: 2 mM ATP
Description: as §1

Molecule | Km ([1]; BrightGlo Buffer) [µM] | Vmax (RLU) ([1]; BrightGlo Buffer) | Km ([1]; Detection Reagent Buffer) [µM] | Vmax (RLU) ([1]; Detection Reagent Buffer) | Km ([2]; BrightGlo Buffer) [µM] | Vmax (RLU) ([2]; BrightGlo Buffer) | Km ([2]; Detection Reagent Buffer) [µM] | Vmax (RLU) ([2]; Detection Reagent Buffer) | Vmax (RLU) CS0333 BrightGlo Buffer [3] | Vmax (RLU) CS0333 Detection Reagent Buffer [3] | Vmax (RLU) CS0280 BrightGlo Buffer [4] | Vmax (RLU) CS0280 Detection Reagent Buffer [4] | Vmax (RLU) D/L-luciferin BrightGlo Buffer [5] | Vmax (RLU) D/L-luciferin Detection Reagent Buffer [5] | Km ([6]; BrightGlo Buffer) [µM] | Vmax (RLU) ([6]; BrightGlo Buffer) | Km ([6]; Detection Reagent Buffer) [µM] | Vmax (RLU) ([6]; Detection Reagent Buffer)
B1 | 5.6 | 652,464 RLU | 678 | 44,058 RLU | 0.0482 | 351,895 RLU | 0.26 | 33,641 RLU | 1,433,640 RLU | 1,270,240 RLU | 1,368,890 RLU | 57,404 RLU | 416,355 RLU | 52,341 RLU | 4.89 | 1,336,251 RLU | 48.4 | 353,432 RLU
B2 | 41.7 | 449,576 RLU | 954 | 24,533 RLU | 0.108 | 2,997,269 RLU | 0.356 | 342,134 RLU | 2,374,950 RLU | 854,223 RLU | 809,566 RLU | 22,493 RLU | 2,583,340 RLU | – | 10.6 | 1,706,369 RLU | 230 | 409,320 RLU
B3 | 4.88 | 534,004 RLU | 632 | 58,187 RLU | 0.0834 | 924,955 RLU | 0.265 | 123,752 RLU | 8,608,150 RLU | 4,805,980 RLU | 1,490,130 RLU | 76,615 RLU | 1,074,780 RLU | 249,347 RLU | 6.45 | 4,586,290 RLU | 37.6 | 727,712 RLU
B4 | 8.07 | 570,972 RLU | 798 | 32,480 RLU | 0.0804 | 550,291 RLU | 0.527 | 22,671 RLU | 3,609,390 RLU | 1,400,780 RLU | 4,644,970 RLU | 62,606 RLU | 851,342 RLU | 74,704 RLU | 7.88 | 1,487,388 RLU | 126 | 301,956 RLU
B5 | 5.74 | 330,383 RLU | 848 | 10,047 RLU | 0.0583 | 1,055,203 RLU | 0.395 | 60,231 RLU | 405,859 RLU | 175,261 RLU | 484,293 RLU | 11,418 RLU | 954,983 RLU | 103,199 RLU | 4.09 | 519,457 RLU | 56.8 | 49,798 RLU
B6 | 7.71 | 1,098,792 RLU | 474 | 88,269 RLU | 0.176 | 1,081,804 RLU | 0.435 | 75,581 RLU | 3,768,010 RLU | 2,570,070 RLU | 1,803,730 RLU | 90,671 RLU | 509,406 RLU | 78,859 RLU | 6.66 | 4,114,986 RLU | 22 | 822,270 RLU
